According to the Human Domainome abundance scans (Beltran et al. 2025):
± gives the uncertainty stated by the source.

B1: Metastasis-associated protein MTA3, residues 265 to 317; numbered along this chain, Q9BTC8 (parent)
chain: RDEMEEWSASEASLFEEALEKYGKDFNDIRQDFLPWKSLTSIIEYYYMWKTTD

Variants of: B1
Test: abundance fitness (aPCA) (normalised: wild type 0, dead -1); higher = more abundant; growth selection in yeast, the domain comes from the species named
Details: Homo sapiens

| Variant | abundance fitness |
| --- | --- |
| RDEMEEWSASEASLFEEALEKYGKDFNDIRQDFLPWKSLRSIIEYYYMWKTTD [T40R] | -0.029 ± 0.08 |
| RDEMEEWSASEASLFEEALEKYGKDFNDIRQDFLPWKSLYSIIEYYYMWKTTD [T40Y] | -0.571 ± 0.23 |
| RDEMEEWSASEASLFEEALEKYGKDFNDIRQDFLPWKSLTSIIEYYYMRKTTD [W49R] | 0.514 ± 0.083 |
| RDEMEEWSASEASLFEEALEKPGKDFNDIRQDFLPWKSLTSIIEYYYMWKTTD [Y22P] | -0.707 ± 0.17 |
| RDEMEEWSASEFSLFEEALEKYGKDFNDIRQDFLPWKSLTSIIEYYYMWKTTD [A12F] | -0.941 ± 0.27 |
| RDEMEEWSASEQSLFEEALEKYGKDFNDIRQDFLPWKSLTSIIEYYYMWKTTD [A12Q] | 0.215 ± 0.11 |
| RDEMEEWSASEASLFEEALEKYGKDFNDIRQDFLPWKSSTSIIEYYYMWKTTD [L39S] | -0.581 ± 0.22 |
| RDEMEEWSASEASLFEEALEKYGKDFNDIRQDFLPWKSLTLIIEYYYMWKTTD [S41L] | -0.577 ± 0.1 |
| RDEMEEWGASEASLFEEALEKYGKDFNDIRQDFLPWKSLTSIIEYYYMWKTTD [S8G] | -0.571 ± 0.12 |
| RDEMEEWTASEASLFEEALEKYGKDFNDIRQDFLPWKSLTSIIEYYYMWKTTD [S8T] | 0.018 ± 0.1 |
| RGEMEEWSASEASLFEEALEKYGKDFNDIRQDFLPWKSLTSIIEYYYMWKTTD [D2G] | 0.204 ± 0.084 |
| REEMEEWSASEASLFEEALEKYGKDFNDIRQDFLPWKSLTSIIEYYYMWKTTD [D2E] | 0.199 ± 0.076 |
| RDEMEEWSASEASLFHEALEKYGKDFNDIRQDFLPWKSLTSIIEYYYMWKTTD [E16H] | -0.202 ± 0.079 |
| RDEMEEWSASEASLFPEALEKYGKDFNDIRQDFLPWKSLTSIIEYYYMWKTTD [E16P] | -0.621 ± 0.096 |
| RDEMEEWSASEASLFFEALEKYGKDFNDIRQDFLPWKSLTSIIEYYYMWKTTD [E16F] | -0.422 ± 0.16 |
| RDEMEEWSASEASLFEEALEKYGKDFNDIRQDFLPWKSLTSIIEYYYMWKLTD [T51L] | -0.147 ± 0.084 |
| RDEMEEWSASEASLFEEALEKYGKDFNDIRQDFLPWKSLTSIIEYYYMWKHTD [T51H] | -0.235 ± 0.1 |
| RDEMEEWSASEASLFEEWLEKYGKDFNDIRQDFLPWKSLTSIIEYYYMWKTTD [A18W] | -0.817 ± 0.11 |
| RDEMEEWSASEASLFEESLEKYGKDFNDIRQDFLPWKSLTSIIEYYYMWKTTD [A18S] | -0.988 ± 0.14 |
| RDEMEEWSASEASLFEEVLEKYGKDFNDIRQDFLPWKSLTSIIEYYYMWKTTD [A18V] | -0.443 ± 0.15 |
| RDEMEEWSASEASLNEEALEKYGKDFNDIRQDFLPWKSLTSIIEYYYMWKTTD [F15N] | -0.969 ± 0.21 |
| RDEMEEWSASEASLAEEALEKYGKDFNDIRQDFLPWKSLTSIIEYYYMWKTTD [F15A] | -0.861 ± 0.15 |
| RDEMEEWSASEASLKEEALEKYGKDFNDIRQDFLPWKSLTSIIEYYYMWKTTD [F15K] | -0.86 ± 0.11 |
| RDEMEEWSASEASLLEEALEKYGKDFNDIRQDFLPWKSLTSIIEYYYMWKTTD [F15L] | -0.697 ± 0.12 |
| RDEMEEWSASEASLHEEALEKYGKDFNDIRQDFLPWKSLTSIIEYYYMWKTTD [F15H] | 0.397 ± 0.13 |

| Variant | abundance fitness |
| --- | --- |
| RDEMEEWSASEASLFEEALEKYGKDFNFIRQDFLPWKSLTSIIEYYYMWKTTD [D28F] | -0.015 ± 0.42 |
| RDEMEEWSASEASLFEEALEKYGKDFNAIRQDFLPWKSLTSIIEYYYMWKTTD [D28A] | 0.861 ± 0.079 |
| RDEMEEWSASEASLFEEALEKYGKDFNIIRQDFLPWKSLTSIIEYYYMWKTTD [D28I] | 0.324 ± 0.16 |
| RDEMEEWSASEASGFEEALEKYGKDFNDIRQDFLPWKSLTSIIEYYYMWKTTD [L14G] | -0.866 ± 0.12 |
| RDEMEEWSASEASRFEEALEKYGKDFNDIRQDFLPWKSLTSIIEYYYMWKTTD [L14R] | -0.602 ± 0.082 |
| RDEMEEWSASEASNFEEALEKYGKDFNDIRQDFLPWKSLTSIIEYYYMWKTTD [L14N] | -0.639 ± 0.17 |
| RDEMEEWSASEASMFEEALEKYGKDFNDIRQDFLPWKSLTSIIEYYYMWKTTD [L14M] | -0.688 ± 0.21 |
| RDEMEEWSASEASHFEEALEKYGKDFNDIRQDFLPWKSLTSIIEYYYMWKTTD [L14H] | -0.945 ± 0.17 |
| RDEMEEWSASEASLFERALEKYGKDFNDIRQDFLPWKSLTSIIEYYYMWKTTD [E17R] | -0.304 ± 0.075 |
| RDEMEEWSASEASLFEEALEKYMKDFNDIRQDFLPWKSLTSIIEYYYMWKTTD [G23M] | -0.735 ± 0.11 |
| RDEMEEWSASEASLFEEALEKYEKDFNDIRQDFLPWKSLTSIIEYYYMWKTTD [G23E] | -0.815 ± 0.26 |
| RDEMEEWSASEASLFEEALEKYSKDFNDIRQDFLPWKSLTSIIEYYYMWKTTD [G23S] | -0.792 ± 0.099 |
| RDEMEEWSASEASLFEEALEKYRKDFNDIRQDFLPWKSLTSIIEYYYMWKTTD [G23R] | -0.844 ± 0.13 |
| RDEMEEWSASEASLFEEALEKYGKDFNDIRQDFLPWYSLTSIIEYYYMWKTTD [K37Y] | -0.806 ± 0.12 |
| RDEMEEWSASEASLFEEALEKYGKDFNDIRQDFLPWMSLTSIIEYYYMWKTTD [K37M] | -0.719 ± 0.15 |
| RDEMEEWSASEASLFEEALEKYGKDFNDIRQDFLPWISLTSIIEYYYMWKTTD [K37I] | -0.586 ± 0.11 |
| RDEMEEWSASEASLFEEALEKYGKDFNDIRQDFLPWWSLTSIIEYYYMWKTTD [K37W] | -0.84 ± 0.089 |
| RDEMEEWSASEASLFEEALEKYGKDFNDIRQDFLPWHSLTSIIEYYYMWKTTD [K37H] | -0.941 ± 0.11 |
| RDPMEEWSASEASLFEEALEKYGKDFNDIRQDFLPWKSLTSIIEYYYMWKTTD [E3P] | -0.466 ± 0.47 |
| RDMMEEWSASEASLFEEALEKYGKDFNDIRQDFLPWKSLTSIIEYYYMWKTTD [E3M] | 0.132 ± 0.29 |
| RDYMEEWSASEASLFEEALEKYGKDFNDIRQDFLPWKSLTSIIEYYYMWKTTD [E3Y] | 0.938 ± 0.43 |
| RDEMEEWSASEASLFEEALEKYGKDFNDIRQDFLPSKSLTSIIEYYYMWKTTD [W36S] | -0.645 ± 0.083 |
| RDEMEEWSASEASLFEEALEKYGKDFNDIRQDFLPWKSLTSIIEYYYMWHTTD [K50H] | -0.127 ± 0.1 |
| RDEMEEWSASEASLFEEALEKYGKDFNDIRQDFLPWKSLTSIIEYYYMWLTTD [K50L] | -0.444 ± 0.074 |
